Target: Recombinant His-BifA (full length) (Streptococcus equi subsp. zooepidemicus ATCC35246)
Assay: SPR; Biacore X100; His-BifA and its variants immobilised on NTA sensorchips, moesin, moesin T558A or moesin T558D injected

Substance	Kd [nM]
Recombinant moesin T558A, non-tagged (from UniProt P26038 1-577) (natural protein)	737
Recombinant moesin T558D, non-tagged (from UniProt P26038 1-577) (natural protein)	10.8
